Experimental data: article PMC11705074
Read-outs that look alike come from different tables or passages of the source.

What was measured:
[1] = target: T1, HhpR (Pyrococcus yayanosii A1, UniProt F8AFU3 1-281); assay: fluorescence polarization
T1 sequence: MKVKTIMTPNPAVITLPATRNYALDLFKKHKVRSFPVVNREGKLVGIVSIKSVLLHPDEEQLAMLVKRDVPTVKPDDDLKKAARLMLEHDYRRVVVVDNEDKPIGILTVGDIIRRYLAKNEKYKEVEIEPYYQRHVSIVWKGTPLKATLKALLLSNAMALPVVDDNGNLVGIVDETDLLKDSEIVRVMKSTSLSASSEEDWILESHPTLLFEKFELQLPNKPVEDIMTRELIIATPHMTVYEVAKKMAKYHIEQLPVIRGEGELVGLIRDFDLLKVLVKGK

[2] = target: T1, HhpR; assay: fluorescence polarization; remark: listed apart in the source

B1: 44-bp Phhp (dsDNA)
DNA 1: CATATAAAAATTGTTGGGCAAATCTGCCCAGAAAAGCTTAAAAG
DNA 2: CTTTTAAGCTTTTCTGGGCAGATTTGCCCAACAATTTTTATATG
B1 showed a Kd [1] of 1900 ± 400 nM and a Kd [2] of 650 ± 370 nM.
